Laboratory results from patent publication US20200261595A1 (Novo Nordisk, published 2020).

What was measured:
[1] = molecular target: insulin receptor of isolated rat adipocytes (rat, UniProt P15127 27-1383); assay: cell-based or functional assay
[2] = molecular target: insulin receptor A (UniProt P06213-2 28-1370, limits assumed); assay: insulin receptor binding assay as in Vienberg et al. 2011; relative to human insulin on insulin receptor A (100%)
Sequence of insulin receptor A (P06213 other isoform, or with tags, fused parts or gaps limits assumed): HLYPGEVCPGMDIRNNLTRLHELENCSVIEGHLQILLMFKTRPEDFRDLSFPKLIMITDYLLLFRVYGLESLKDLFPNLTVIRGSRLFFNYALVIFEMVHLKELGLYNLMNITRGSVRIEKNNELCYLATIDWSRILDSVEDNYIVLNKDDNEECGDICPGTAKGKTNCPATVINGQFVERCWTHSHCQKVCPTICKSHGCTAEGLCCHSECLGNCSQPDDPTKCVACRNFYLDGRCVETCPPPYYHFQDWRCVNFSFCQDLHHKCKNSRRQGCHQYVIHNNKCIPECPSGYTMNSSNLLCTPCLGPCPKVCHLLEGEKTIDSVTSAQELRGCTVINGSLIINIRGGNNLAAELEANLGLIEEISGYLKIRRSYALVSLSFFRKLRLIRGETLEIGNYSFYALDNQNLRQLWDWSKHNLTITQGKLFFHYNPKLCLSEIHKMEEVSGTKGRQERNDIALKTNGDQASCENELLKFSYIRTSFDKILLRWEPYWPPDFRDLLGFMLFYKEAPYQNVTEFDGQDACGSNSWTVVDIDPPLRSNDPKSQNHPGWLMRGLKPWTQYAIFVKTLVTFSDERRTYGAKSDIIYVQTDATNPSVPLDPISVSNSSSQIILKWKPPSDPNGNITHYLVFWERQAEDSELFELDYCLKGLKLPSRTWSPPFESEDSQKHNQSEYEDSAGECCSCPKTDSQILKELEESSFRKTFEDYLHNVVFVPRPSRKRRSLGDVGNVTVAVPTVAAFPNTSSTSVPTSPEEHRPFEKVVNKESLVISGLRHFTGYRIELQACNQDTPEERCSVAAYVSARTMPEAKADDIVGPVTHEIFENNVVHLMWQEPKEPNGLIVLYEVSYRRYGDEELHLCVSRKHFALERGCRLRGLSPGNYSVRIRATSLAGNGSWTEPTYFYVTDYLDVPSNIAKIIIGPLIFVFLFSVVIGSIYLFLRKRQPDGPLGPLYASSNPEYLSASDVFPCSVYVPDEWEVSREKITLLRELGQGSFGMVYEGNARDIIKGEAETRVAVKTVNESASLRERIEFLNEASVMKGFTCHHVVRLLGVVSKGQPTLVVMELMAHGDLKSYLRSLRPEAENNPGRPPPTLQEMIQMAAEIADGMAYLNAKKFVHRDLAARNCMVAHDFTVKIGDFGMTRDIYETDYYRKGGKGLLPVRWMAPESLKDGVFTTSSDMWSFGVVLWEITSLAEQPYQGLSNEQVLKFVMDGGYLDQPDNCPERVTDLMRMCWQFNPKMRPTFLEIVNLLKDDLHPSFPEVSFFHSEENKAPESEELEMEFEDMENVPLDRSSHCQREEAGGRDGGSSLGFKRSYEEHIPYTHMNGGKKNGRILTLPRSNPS

Sequence of insulin receptor of isolated rat adipocytes (P15127 27-1383): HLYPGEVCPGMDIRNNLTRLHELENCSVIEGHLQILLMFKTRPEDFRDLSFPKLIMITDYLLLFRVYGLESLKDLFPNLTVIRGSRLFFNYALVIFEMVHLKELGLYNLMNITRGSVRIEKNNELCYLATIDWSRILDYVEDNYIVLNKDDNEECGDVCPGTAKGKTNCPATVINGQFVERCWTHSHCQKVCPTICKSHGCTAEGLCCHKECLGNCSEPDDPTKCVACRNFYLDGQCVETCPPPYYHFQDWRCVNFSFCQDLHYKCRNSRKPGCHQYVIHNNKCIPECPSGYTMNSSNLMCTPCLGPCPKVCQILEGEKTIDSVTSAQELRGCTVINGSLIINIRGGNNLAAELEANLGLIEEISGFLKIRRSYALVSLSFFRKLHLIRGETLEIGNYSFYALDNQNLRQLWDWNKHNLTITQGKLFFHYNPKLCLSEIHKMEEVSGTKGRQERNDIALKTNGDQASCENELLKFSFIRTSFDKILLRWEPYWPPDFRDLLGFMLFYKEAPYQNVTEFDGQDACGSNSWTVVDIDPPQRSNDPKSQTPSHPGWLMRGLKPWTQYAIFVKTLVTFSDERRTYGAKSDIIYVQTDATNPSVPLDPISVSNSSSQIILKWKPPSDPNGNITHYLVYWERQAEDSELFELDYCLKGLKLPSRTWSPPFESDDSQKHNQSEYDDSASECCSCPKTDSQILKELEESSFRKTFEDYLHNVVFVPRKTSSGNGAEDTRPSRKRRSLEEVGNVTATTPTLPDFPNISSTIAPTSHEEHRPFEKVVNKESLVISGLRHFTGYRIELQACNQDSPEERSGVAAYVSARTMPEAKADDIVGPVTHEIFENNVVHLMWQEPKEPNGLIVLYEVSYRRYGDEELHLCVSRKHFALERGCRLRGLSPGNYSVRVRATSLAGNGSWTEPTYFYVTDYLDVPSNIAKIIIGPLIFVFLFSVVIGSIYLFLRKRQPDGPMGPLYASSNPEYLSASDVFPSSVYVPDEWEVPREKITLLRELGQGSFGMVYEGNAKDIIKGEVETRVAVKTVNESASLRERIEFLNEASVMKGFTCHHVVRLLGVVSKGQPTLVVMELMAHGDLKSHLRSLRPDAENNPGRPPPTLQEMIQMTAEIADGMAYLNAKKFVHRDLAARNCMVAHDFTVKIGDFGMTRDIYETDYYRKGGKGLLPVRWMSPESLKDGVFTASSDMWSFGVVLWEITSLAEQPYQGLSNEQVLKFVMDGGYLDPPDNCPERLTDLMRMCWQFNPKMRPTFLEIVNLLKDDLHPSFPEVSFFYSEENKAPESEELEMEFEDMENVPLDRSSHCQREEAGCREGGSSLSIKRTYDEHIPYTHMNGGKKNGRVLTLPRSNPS

Lipogenesis in rat adipocytes [Potency (%)] Mean Value [1] | Insulin receptor affinity [IC50 relative to HI (%)] [2] [%] | Binder
3.68 % of human insulin | 3.68 | (A14E, A21G, A22(GQAP)19, A98K^, A99P, B25H, B29R, desB30 human insulin)/(227A, 234A, 235K, 297E, 315Q, 384Q, des447 hIgG4-Fc(228-447)) … (other, Cys229 (EU numbering) sulphur bound to an acetyl arm of the linker; A98K N(eps) acylated by the trivalent linker 4-[bis[2-[(2-acetyl)amino]ethyl]amino]-4-oxo-butanoyl, also called Ex 5.15) chain 1: GIVEQCCTSICSLEQLENYCGGQAPGQAPGQAPGQAPGQAPGQAPGQAPGQAPGQAPGQAPGQAPGQAPGQAPGQAPGQAPGQAPGQAPGQAPGQAPKP chain 2: FVNQHLCGSHLVEALYLVCGERGFHYTPR chain 3: ASCPAPEAKGGPSVFLFPPKPKDTLMISRTPEVTCVVVDVSQEDPEVQFNWYVDGVEVHNAKTKPREEQFESTYRVVSVLTVLHQDWLQGKEYKCKVSNKGLPSSIEKTISKAKGQPREPQVYTLPPSQEEMTKNQVSLTCLVKGFYPSDIAVEWESQGQPENNYKTTPPVLDSDGSFFLYSRLTVDKSRWQEGNVFSCSVMHEALHNHYTQKSLSLSLG
4.34 % of human insulin | 3.86 | (A14E, A21G, A22(GQAP)19, A98K^, A99P, B25H, B29R, desB30 human insulin)/(227A, 234A, 235K, 297E, 315Q, 384Q, des447 hIgG4-Fc(228-447)) … (other, Cys229 (EU numbering) sulphur bound to an acetyl arm of the linker; A98K N(eps) acylated by the trivalent linker 6-[bis[2-[(2-acetyl)amino]ethyl]amino]-6-oxo-hexanoyl, also called Ex 5.16) chain 1: GIVEQCCTSICSLEQLENYCGGQAPGQAPGQAPGQAPGQAPGQAPGQAPGQAPGQAPGQAPGQAPGQAPGQAPGQAPGQAPGQAPGQAPGQAPGQAPKP chain 2: FVNQHLCGSHLVEALYLVCGERGFHYTPR chain 3: ASCPAPEAKGGPSVFLFPPKPKDTLMISRTPEVTCVVVDVSQEDPEVQFNWYVDGVEVHNAKTKPREEQFESTYRVVSVLTVLHQDWLQGKEYKCKVSNKGLPSSIEKTISKAKGQPREPQVYTLPPSQEEMTKNQVSLTCLVKGFYPSDIAVEWESQGQPENNYKTTPPVLDSDGSFFLYSRLTVDKSRWQEGNVFSCSVMHEALHNHYTQKSLSLSLG
4.86 % of human insulin | 5.37 | A14E, A21G, A22(GQAPGQEP)6, A70K^, A71P, B25H, B29R, desB30 human insulin/(227A, 234A, 235K, 297E, 315Q, 384Q, des447 hIgG4-Fc(228-447)) … (other, Cys229 (EU numbering) sulphur bound to an acetyl arm of the linker; A70K N(eps) acylated by the trivalent linker 4-[bis[2-[(2-acetyl)amino]ethyl]amino]-4-oxo-butanoyl, also called Ex 5.14) chain 1: GIVEQCCTSICSLEQLENYCGGQAPGQEPGQAPGQEPGQAPGQEPGQAPGQEPGQAPGQEPGQAPGQEPKP chain 2: FVNQHLCGSHLVEALYLVCGERGFHYTPR chain 3: ASCPAPEAKGGPSVFLFPPKPKDTLMISRTPEVTCVVVDVSQEDPEVQFNWYVDGVEVHNAKTKPREEQFESTYRVVSVLTVLHQDWLQGKEYKCKVSNKGLPSSIEKTISKAKGQPREPQVYTLPPSQEEMTKNQVSLTCLVKGFYPSDIAVEWESQGQPENNYKTTPPVLDSDGSFFLYSRLTVDKSRWQEGNVFSCSVMHEALHNHYTQKSLSLSLG
3.57 % of human insulin | 6.1 | A14E, A21G, A22(GQEP)19, A98K^, A99P, B3Q, B25H, B29R, desB30 human insulin/(227A, 234A, 235K, 297E, 315Q, 384Q, des447 hIgG4-Fc(228-447)) … (other, Cys229 (EU numbering) sulphur bound to an acetyl arm of the linker; A98K N(eps) acylated by the trivalent linker 4-[bis[2-[(2-acetyl)amino]ethyl]amino]-4-oxo-butanoyl, also called Ex 5.2) chain 1: GIVEQCCTSICSLEQLENYCGGQEPGQEPGQEPGQEPGQEPGQEPGQEPGQEPGQEPGQEPGQEPGQEPGQEPGQEPGQEPGQEPGQEPGQEPGQEPKP chain 2: FVQQHLCGSHLVEALYLVCGERGFHYTPR chain 3: ASCPAPEAKGGPSVFLFPPKPKDTLMISRTPEVTCVVVDVSQEDPEVQFNWYVDGVEVHNAKTKPREEQFESTYRVVSVLTVLHQDWLQGKEYKCKVSNKGLPSSIEKTISKAKGQPREPQVYTLPPSQEEMTKNQVSLTCLVKGFYPSDIAVEWESQGQPENNYKTTPPVLDSDGSFFLYSRLTVDKSRWQEGNVFSCSVMHEALHNHYTQKSLSLSLG
3.23 % of human insulin | 3.95 | (A14E, A21G, A22(GQAP)18, A94G, A95Q, A96A, A97K^, A98P, B29R, desB30 human insulin)/(227A, 234A, 235K, 297E, 315Q, 384Q, des447 hIgG4-Fc(228-447)) … (other, Cys229 (EU numbering) sulphur bound to an acetyl arm of the linker; A97K N(eps) acylated by the trivalent linker 4-[bis[2-[(2-acetyl)amino]ethyl]amino]-4-oxo-butanoyl, also called Ex 5.26) chain 1: GIVEQCCTSICSLEQLENYCGGQAPGQAPGQAPGQAPGQAPGQAPGQAPGQAPGQAPGQAPGQAPGQAPGQAPGQAPGQAPGQAPGQAPGQAPGQAKP chain 2: FVNQHLCGSHLVEALYLVCGERGFFYTPR chain 3: ASCPAPEAKGGPSVFLFPPKPKDTLMISRTPEVTCVVVDVSQEDPEVQFNWYVDGVEVHNAKTKPREEQFESTYRVVSVLTVLHQDWLQGKEYKCKVSNKGLPSSIEKTISKAKGQPREPQVYTLPPSQEEMTKNQVSLTCLVKGFYPSDIAVEWESQGQPENNYKTTPPVLDSDGSFFLYSRLTVDKSRWQEGNVFSCSVMHEALHNHYTQKSLSLSLG
5.36 % of human insulin | 4.7 | (A14E, A21G, A22(GQAP)24, A118G, A119Q, A120A, A121K^, A122P, B25H, B29R, desB30 human insulin)/(227A, 234A, 235K, 297E, 315Q, 384Q, des447 hIgG4-Fc(228-447)) … (other, Cys229 (EU numbering) sulphur bound to an acetyl arm of the linker; A121K N(eps) acylated by the trivalent linker 4-[bis[2-[(2-acetyl)amino]ethyl]amino]-4-oxo-butanoyl, also called Ex 5.23) chain 1: GIVEQCCTSICSLEQLENYCGGQAPGQAPGQAPGQAPGQAPGQAPGQAPGQAPGQAPGQAPGQAPGQAPGQAPGQAPGQAPGQAPGQAPGQAPGQAPGQAPGQAPGQAPGQAPGQAPGQAKP chain 2: FVNQHLCGSHLVEALYLVCGERGFHYTPR chain 3: ASCPAPEAKGGPSVFLFPPKPKDTLMISRTPEVTCVVVDVSQEDPEVQFNWYVDGVEVHNAKTKPREEQFESTYRVVSVLTVLHQDWLQGKEYKCKVSNKGLPSSIEKTISKAKGQPREPQVYTLPPSQEEMTKNQVSLTCLVKGFYPSDIAVEWESQGQPENNYKTTPPVLDSDGSFFLYSRLTVDKSRWQEGNVFSCSVMHEALHNHYTQKSLSLSLG
5.41 % of human insulin | 5.49 | A14E, A21G, A22(GQAPGQAPGQAPGQEP)6-GQAP, A122K^, A123P, B25H, B29R, desB30 human insulin/(227A, 234A, 235K, 297E, 315Q, 384Q, des447 hIgG4-Fc(228-447)) … (other, Cys229 (EU numbering) sulphur bound to an acetyl arm of the linker; A122K N(eps) acylated by the trivalent linker 4-[bis[2-[(2-acetyl)amino]ethyl]amino]-4-oxo-butanoyl, also called Ex 5.20) chain 1: GIVEQCCTSICSLEQLENYCGGQAPGQAPGQAPGQEPGQAPGQAPGQAPGQEPGQAPGQAPGQAPGQEPGQAPGQAPGQAPGQEPGQAPGQAPGQAPGQEPGQAPGQAPGQAPGQEPGQAPKP chain 2: FVNQHLCGSHLVEALYLVCGERGFHYTPR chain 3: ASCPAPEAKGGPSVFLFPPKPKDTLMISRTPEVTCVVVDVSQEDPEVQFNWYVDGVEVHNAKTKPREEQFESTYRVVSVLTVLHQDWLQGKEYKCKVSNKGLPSSIEKTISKAKGQPREPQVYTLPPSQEEMTKNQVSLTCLVKGFYPSDIAVEWESQGQPENNYKTTPPVLDSDGSFFLYSRLTVDKSRWQEGNVFSCSVMHEALHNHYTQKSLSLSLG
